# Data as given in the nanobody polyreactivity screen of Harvey et al. (2022).
# Experiment: yeast display, Sf9 membrane polyspecificity reagent, FACS + sequencing; frameworks hold sequencing errors
# In short: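 In a synthetic yeast display library (Saccharomyces cerevisiae BJ5465), nanobody expression was induced with galactose for 36–48 hours. FACS gates were set low and high (top ~1%) using anti-HA fluorescence for expression and streptavidin fluorescence for binding of the Sf9 membrane reagent. Each polyreactivity label is drawn from the gate of origin.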
row,Sequence,polyreactivity (PSR sort gate)
1,QVQLVESGGGLVQAGGSLRLSCAASGRTFGVNTMGCYRQAPGKEREFVASISTSGGSTYADSVNGRFTISRDNAKNTVYLQMNSLKPEDTAVYYCAKDTDAVYDEYDSWGQGTQVTVSS,low polyreactivity
2,QVQLVESGGGLVQAGGSLRLSCAASGRTFGVNTMGWYRQAPGKERELVASISTSGGSTYADSVKGRFTISRDNAKNTVYLQMNSLKPEDTAVYYCAKDTDAVYDEYDSWGQGTQVTVSS,low polyreactivity
3,QVQLVESGGGLVQAGGSLRLSCAASGRTFGVYAMGWYRQAPGKERELVAGIRWRGGSTYYADSVKGRFTISRDNAKNTVYLQMNSLKPEDTAVYYWAARVQFPYPDYAWITVLYDYWGQCTQVTVSS,low polyreactivity
4,QVQLVESGGGLVQAGGSLRLSCAASGRTFGVYAMGWYRQAPGKERELVARIRYSGGTTRYADSVKGRFTISRDNAKITVYFQMNSLKPEDTAVYYCAARSGYFRSRFDYWGQGTQVTVSS,high polyreactivity
5,QVQLVESGGGLVQAGGSLRLSCAASGRTFGVYVMGWYRQAPGKERELVAAIRIGDSTNYADSVKGRFTISRDNAKNTVYLQMNSLKPEDTAVYYCNAYRVRYTVDSVFYGYDYWGQGTQVTVSS,high polyreactivity
6,QVQLVESGGGLVQAGGSLRLSCAASGRTFGVYVMGWYRQAPGKERELVAVITISGGSTYYADSVKGRFTISRDNAKNTVYLQMNSLKPEDTAVYYCAARTYYGYDYWGQGTQVTVSS,high polyreactivity
7,QVQLVESGGGLVQAGGSLRLSCAASGRTFGWNAMGWYRQAPGKERELVAAITRGGITNYADSVKGRFTISRDNAKNTVYLQMNSLKPEDTAVYYCNKKFYRGASRYYYWGQGTQVTVSS,high polyreactivity
8,QVQLVESGGGLVQAGGSLRLSCAASGRTFGWYAMGWYRQAPGKERELVAAISSSDDSTYYADSVKGRFTISRDNAKNTVYLQMNSLKPEDTAVYYCAADGYPDPYKVRFGYWGQGTQVTVSS,low polyreactivity
9,QVQLVESGGGLVQAGGSLRLSCAASGRTFGWYTMGRYRQAPGKERELVAGISSSGGSTYYADSVKGRFTISRDNAKNTVYLQMNSLKPEDTAVYYCARETYPHGLYYRPYDYWGQGTQVTVSS,low polyreactivity
10,QVQLVESGGGLVQAGGSLRLSCAASGRTFGYNAMGWNRQAPGKERELVAAINWSGASTYYADSVKGRFTISRDNAKNTVYFQMNSLKPADTAVYYCAADYSYIYGFDYWGQGTQVTVSS,low polyreactivity
11,QVQLVESGGGLVQAGGSLRLSCAASGRTFGYNAMGWYRQAPGKEREFVAAITWSGGRTYYADSVKGRFTISRDNAKNTVYLQMISLKPEDTAVYYCAAVLGRPLHGVAYGYWGQGTQVTVSS,low polyreactivity
12,QVQLVESGGGLVQAGGSLRLSCAASGRTFGYNAMGWYRQAPGKERELVAAISYSGGRTYYADSVKGRFTISRDNAKNTVYLQMNSLKPEDTAVYYCAAKNPYKYDYWGQGTQVTVSS,high polyreactivity
13,QVQLVESGGGLVQAGGSLRLSCAASGRTFGYNAMGWYRQAPGKERELVAAITRGGSTYYADSVKGRFTISRDNAKNTVYLQMNSLKPEDTAVYYCAAKSYWSGYFVGYEYWGQGTQVTVSS,high polyreactivity
14,QVQLVESGGGLVQAGGSLRLSCAASGRTFGYNAMGWYRQAPGTERELVAGITGTGGTTNYADSVKGRFTISRDNAKNTVYLQMNSLKPEDTAVYYCNKDYDVSSEKEPLGYWGQGTQVTVSS,low polyreactivity
15,QVQLVESGGGLVQAGGSLRLSCAASGRTFGYNGMGWYRQAPGKERELVAAINSGGNTNYADSVKGRFTISRDNAKNTVYLQMNSLKPEDTSVYYCAKYGTLFEPVPNEYDYWGQGTQVTVSS,low polyreactivity
16,QVQLVESGGGLVQAGGSLRLSCAASGRTFGYNVMGWYRQAPGKERELVARITSGGNTKYADSVKGRFTISRDNAKNTVYLQMNSLKPEDTAVYYCAKRPLGVRGIYFQYDYWGQGTQVTVSS,high polyreactivity
17,QVQLVESGGGLVQAGGSLRLSCAASGRTFGYTMGWYRQAPGKERELVAAITRSVTTYYADSVKGRFTISRDNAKNTVYLQMNSLKPEDTAVYYCAARPKYPYGRFGYYWGQGTQVTVSS,high polyreactivity
18,QVQLVESGGGLVQAGGSLRLSCAASGRTFGYYAMGWYRPAPGKERELVAAITRTGGSTHYADSVKGRFTISRDNAKNTVYLQMNSLKPEDTAVYYCAVDYHQAWPSADYWFEYDYWGQGTQVTVSS,low polyreactivity
19,QVQLVESGGGLVQAGGSLRLSCAASGRTFGYYAMGWYRQAPGKEREFVAAISSRGGSTRYADSVKGRFTISRDNAKNTVYLQMNSLKPEDTAVYYCNKGYYRHPDESDYGGQGTQVTVSS,high polyreactivity
20,QVQLVESGGGLVQAGGSLRLSCAASGRTFGYYAMGWYRQAPGKERELVAAINSRGGSTYYADSVKGRFTISRDNAKNTVYLQMNSLKPEDTAVYYCAVVRWRQYIFATYDYWGQGTQVTVSS,high polyreactivity
21,QVQLVESGGGLVQAGGSLRLSCAASGRTFGYYAMGWYRQAPGKERELVAAISRGGRTNYADSVKGRFTISRDNAKNTVYLQMNSLKPEDTAVYYCAKSGTIPRYTASYSLLDYWGQGTQVTVSS,low polyreactivity
22,QVQLVESGGGLVQAGGSLRLSCAASGRTFGYYAMGWYRQAPGKERELVAAISSRSSTTYYADSVKGRFTISRDNAKNTVYLQMNSLKTEDNAVYYCNVAYGEWKTFDYWGQGTQVTVSS,high polyreactivity

row,Sequence,polyreactivity (PSR sort gate)
1,QVQLVESGGGLVQAGGSLRLSCAASGRTFGYYAMGWYRQAPGKERELVAAISWRGGSTYYADSVKGRFTISRDNAKNTVYLQMNSLKPEDTAVYYCHRAYVYPQGPYPYDYWGQGTQVTVSS,high polyreactivity
2,QVQLVESGGGLVQAGGSLRLSCAASGRTFGYYAMGWYRQAPGKERELVAAITRTGGSTHYADSVKGRFTISRDNAKNTVYLQKNSLKPEDTAVYYCARDYRYTIPYDYWGQGTQVTVSS,low polyreactivity
3,QVQLVESGGGLVQAGGSLRLSCAASGRTFGYYAMGWYRQAPGQERELVAAISWSDSGTYYADSVKGRFTISRDNAKNTVYLQMNSLKPEDTAVYYCAKDEPYFVFRDTYDYWGQGTQVTVSS,high polyreactivity
4,QVQLVESGGGLVQAGGSLRLSCAASGRTFGYYGMGWYRQAPGKERELVASINFSSGSTFYADSVKGRFTISRDNAKNTVYLQMNSLKPEDTAVYYCAARAKAVRTYAYNYWGQGTQVTVSS,low polyreactivity
5,QVQLVESGGGLVQAGGSLRLSCAASGRTFGYYVMGWYRQAPGKERELVAAISRSGGTTYYADSVKGRFTISRDNAKNTVYLQMNSLKPEDTAVYYCATDSRTGYDYWGQGTQVTVSS,high polyreactivity
6,QVQLVESGGGLVQAGGSLRLSCAASGRTFHGYAMGWYRQAPGKERELVAAITSSGARTYYADSVKGRFTISRDNAKNTVFLQMNILKPEDSAVYYCAVNWLRGMDWGQGTQVTVSS,high polyreactivity
7,QVQLVESGGGLVQAGGSLRLSCAASGRTFHLYAIGWSRQAAGKERELVAAINSGGRTNYADSVKGRFTISLDNAKNTVYLQLNSLKPEDTAVYYCAARANPYVLKYYYWGQGSQVTVSS,high polyreactivity
8,QVQLVESGGGLVQAGGSLRLSCAASGRTFHNYAMGRYRQAPGKERELVAAISRGGNTYYADSVKGRFTISRDNSKNTVYLQMNSLKPEDTAVYYCAKDNHFEAYRYDYWGQGTQVTVSS,high polyreactivity
9,QVQLVESGGGLVQAGGSLRLSCAASGRTFHRNAMGWYRQAPGKERELVAAITGDGRTNYADSVKGRFTISRDNAKNTVYLQMNSLKPEDTAVYYCNRDNDYYRPGGRPVGIFDYWGQGTQVTVSS,low polyreactivity
10,QVQLVESGGGLVQAGGSLRLSCAASGRTFHRYAMGWYRPAPGKERELVAAISRGGITYYADSVKGRFTISRDNAKNTVYLQMNSLKPEDTAVYFCAALYRYYHESSPFDYWGQGTQVTVSS,high polyreactivity
11,QVQLVESGGGLVQAGGSLRLSCAASGRTFHRYAMGWYRQAPVKEREVLAAITSSGGSTNYADSVKVRFTISRDNAKNTVYVQMNSLQPEDTAVYYCATDRYRYTSHPWSRGFDYWGQGTQVTVSS,low polyreactivity
12,QVQLVESGGGLVQAGGSLRLSCAASGRTFHSYAMGWYRQAPGKERELVAAIRGRGGTTYYADSVKGRFTFSRDNAKNTVYLQMNSLKPEDTAVYYCNAVVRRYFTAAATYDYWGQGTQVTVSS,high polyreactivity
13,QVQLVESGGGLVQAGGSLRLSCAASGRTFHVYAMGWYRQAPGKEREFVAFISRRGGSTYYADSVKGRFTISRDNAKNTVYLQMNSLKPEDTAVYYCKARYVTSRSAYQRGGDYWGQGTQVTVSS,high polyreactivity
14,QVQLVESGGGLVQAGGSLRLSCAASGRTFHWYAMGGYRQAPGKERELVAAIRYSAGSTYYADSVKGRFTISRDNAKNTVYLQMNSLKPEDTAVYYCAAEPYPYGPYYLLWLRYDYWGQGTQVTVSS,low polyreactivity
15,QVQLVESGGGLVQAGGSLRLSCAASGRTFIANAMGWYRKAPRKERELLAVITLNGGSTYYADSVKGRFTISRDNAKKTVYLQMNSLKPEDTAVYYCNARYYPLYSKSYDSWGQGTQVPVSS,low polyreactivity
16,QVQLVESGGGLVQAGGSLRLSCAASGRTFIFYAMGWYRQAPGKERELVAAITYSGTSTYYADSVKGRFTISRDNAKNTVYLQMNSLKPEDTAVYYCAKDGQRDANYYWGQGTQVTVSS,low polyreactivity
17,QVQLVESGGGLVQAGGSLRLSCAASGRTFIGYAMGWYRQAPGKERELVAAISSSGGRTYYADSVKGRFTISRDNAKNTVYLQMNSLKPEDTAVYYCATGSWARDYYYWGQGTQVTVSS,high polyreactivity
18,QVQLVESGGGLVQAGGSLRLSCAASGRTFIHYAMVWYRQAPGKERELVAAISRRGGSTYYADSVKGRFTISRDNAKNTVYLQMNSLKPEDTAVYYCAKATTTREPKYGYWGQGTQVTVSS,high polyreactivity
19,QVQLVESGGGLVQAGGSLRLSCAASGRTFIKYAMGWYRPAPGKERELVAAITHRGTNTYYADSVKGRFTISRDNAKYTVYLQMNSLKPEDTAVYYCAAAAPSYPSYDYWGQGTQVTVSS,low polyreactivity
20,QVQLVESGGGLVQAGGSLRLSCAASGRTFIWYAMGWYRQAPGKEREFVAAIRSSGGRTYYADSVKGRFTISRDNAKNTVYLQMNSLKPEDTAVYYCAKEAYYGWYWYGYWGQGTQVTVSS,high polyreactivity
21,QVQLVESGGGLVQAGGSLRLSCAASGRTFIWYVMGWYRQAPGKERELVASISTNGGNTYYADSVKGRFTISRDNAKNTVYLQMNSLKPEDTAVFYCAVDGVDAYYIAYYYWGQGTQVTVSS,high polyreactivity
